Test results taken from US7083962B2, “Carbonyl reductases, polynucleotides comprising DNA encoding the same, methods for producing the same, and methods for producing optically active alcohol utilizing the same” (Daicel Chemical Industries Ltd., priority 2004, dated 2006).

B1: carbonyl reductase: NADPH-dependent carbonyl reductase purified from Torulaspora delbrueckii JCM 5921; amino acid sequence SEQ ID NO: 2 (protein, listed as Torulaspora delbrueckii)
chain: MSILVSGATGFIALHVVSDLLKQDYKVIGTVRSQEKADKLRKQFGNNPNLSFELVSDIAAPEAFDKVFQKHGKDIKVVLHTASPFTLETTNYEKDLLLPAVNGTKSILESIKKYAADSVERVVITSSYAAVMNVSKEGDGSIVYTEKDWNPATWENCQIDGLNAYCGSKKLAEKAAWDFFEDNKNVVKFKLSMINPTYVFGPQLFDEDVKDKLNTSCELINSIIKNNPQVGYLLENIKGHFVDVRDVAKAHLVAFQKDEAIGQRLLTSNGRFAYQDLVDIINEDFPQLKGKVIVGKPGAGKQLYGTFPDINNTRSKEILGFEFISLHKSVHDTAAQVLKKEGKL

Experiments:
[1] = tested on: carbonyl reductase; experiment: Substrate specificity: NADPH-dependent reduction by the carbonyl reductase obtained in Example 1; type: biochemical, Torulaspora delbrueckii; settings: substrate 5 mM, coenzyme NADPH; reduction of 3,4-dimethoxyphenylacetone regarded as 100
Procedure: (§1) A reaction solution comprising 50 mM potassium phosphate buffer (pH 6.5), 0.2 mM NADPH, 5 mM 3,4-dimethoxyphenylacetone, and an enzyme is reacted at 30° C. Any decrease in absorbance at 340 nm accompanying a decrease in NADPH is measured. 1U is defined as the amount of enzyme which catalyzes a 1 μmol decrease of NADPH in one minute.
(§2) The enzyme obtained in Example 1 was reacted with various ketones, ketoesters, and soon. The activities of the reduction reactions were expressed as relative activities, where the reduction of 3,4-dimethoxyphenylacetone was regarded as 100 (Table 2) (substrate specificity of carbonyl reductase). The activity of dehydrogenating 1-(3,4-dimethoxyphenyl)-2-propanol was measured as follows: A reaction was performed at 30° C. in a reaction solution comprising 50 mM Tris-HCl buffer (pH 8.5), 2.5 mM NADP^+, 5 mM 1-(3,4-dimethoxyphenyl)-2-propanol, and the enzyme. An increase in absorbance at 340 nm, accompanying NADPH production, was measured. 1 U was defined as the amount of enzyme catalyzing the production of 1 μmol NADPH per minute. In addition, the activity of reducing NADH-dependent 3,4-dimethoxyphenylacetone was measured as follows: A reaction was performed at 30° C. in a reaction solution comprising 50 mM potassium phosphate buffer (pH 6.5), 0.2 mM NADH, 5 mM 3,4-dimethoxyphenylacetone, and the enzyme, and decrease in absorbance at 340 nm, accompanying decrease in NADH, was measured. 1 U was defined as the amount of enzyme catalyzing a decrease of 1 μmol NADH per minute.

[2] = tested on: carbonyl reductase; experiment: NADH-dependent 3,4-dimethoxyphenylacetone-reducing activity; type: biochemical, Torulaspora delbrueckii; settings: substrate 5 mM, coenzyme NADH, pH 6.5, 30° C.
Procedure: as §2

[3] = Enzymatic synthesis of (S)-1-(3,4-dimethoxyphenyl)-2-propanol: optical purity and reaction yield; type: biochemical; settings: 0.25 U carbonyl reductase, 50 mM 3,4-dimethoxyphenylacetone, overnight, 25° C., pH 6.5
Procedure: A reaction was performed overnight at 25° C. in 1 mL of a reaction solution comprising 200 mM potassium phosphate buffer (pH 6.5), 1 mM NADP^+, 2 U glucose dehydroganase (Wako Pure Chemical Industries, Ltd.), 250 mM glucose, 0.25 U carbonyl reductase, and 50 mM 3,4-dimethoxyphenylacetone. The optical purity of the produced (S)-1-(3,4-dimethoxyphenyl)-2-propanol was measured as follows: One mL of ethyl acetate was added to 0.5 mL of the reaction solution to extract (S)-1-(3,4-dimethoxyphenyl)-2-propanol, and the extraction solvent was desolvated. 0.5 mL of a dissolving solution (n-hexane: isopropanol=4:1) was then added to dissolve the extract, which was then analyzed by liquid chromatography using an optical resolution column. CHIRALCEL OF (4.6 mm×25 cm; Daicel Chemical Industries, Ltd.) was used as the optical resolution column. Chromatography was performed with a wavelength of 220 nm, a flow rate of 1.0 mL/min, and at 40° C. using an eluting solution of n-hexane: isopropanol=4:1.
In addition, the (S)-1-(3,4-dimethoxyphenyl)-2-propanol thus-produced was quantified using gas chromatography, and a yield relative to the raw starting material, 3,4-dimethoxyphenylacetone, was obtained. Specifically, the analysis was performed at a column temperature of 210° C., using Thermon 3000 (10%)-Chromosorb W (AW-DMCS, Mesh 60–80; 3.2 mm×210 cm) with a hydrogen flame ionization detector (FID). The resulting reaction yield was about 95%.
To prepare crude enzyme solution for enzyme reaction, the crude enzyme solution prepared in Example 18 was concentrated ten-folds using a UF membrane. This solution was reacted overnight at 25° C. in 1 mL of a reaction solution comprising 200 mM potassium phosphate buffer (pH 6.5), 1 mM NADP^+, 2 U glucose dehydrogenase (Wako Pure Chemical Industries, Ltd.), 250 mM glucose, 0.2 U homolog enzyme, and 50 mM 3,4-dimethoxyphenylacetone. Optical purity was measured and the produced (S)-1-(3,4-dimethoxyphenyl)-2-propanol was quantified as in Example 6. As a result, YGL157w (pSE-YGP7) produced 93.7% ee (S)-1-(3,4-dimethoxyphenyl)-2-propanol at a yield of 66%, YGL039w (pSE-YGD9) produced 93.6% ee at a yield of 94%, and YDR541c (pSE-YDR1) produced 94.8% ee at a yield of 6%.

[4] = 3,4-dimethoxyphenylacetone-reducing activity of the purified enzyme (specific activity, pH and temperature dependency); type: biochemical, Torulaspora delbrueckii; settings: 3,4-dimethoxyphenylacetone reduction, NADPH, pH 6.5, 30° C.
Procedure: as §1
The specific activity of the purified enzyme was 196 mU/mg.
By changing the pH using potassium phosphate buffer, sodium acetate buffer, and Britton-Robinson buffer, the 3,4-dimethoxyphenylacetone-reducing activity of the enzyme obtained in Example 1 was investigated. Activity at each pH was expressed as a relative activity, where the maximum activity was regarded as 100 (FIG. 2). Optimal pH (showing 80% or more relative activity) was 5.5 to 6.5.
Of the standard reaction conditions, only the temperature was changed, and the 3,4-dimethoxyphenylacetone-reducing activity of the enzyme obtained in Example 1 was then measured. Activity at each temperature was expressed as a relative activity, where the maximum activity was regarded as 100 (FIG. 3). Optimal temperature (showing 80% or more relative activity) was 50° C. to 55° C.

| Molecule | Relative activity [1] [%] | Relative activity [2] [%] | Optical purity of the produced (S)-1-(3,4-dimethoxyphenyl)-2-propanol [3] [% ee] | Reaction yield relative to 3,4-dimethoxyphenylacetone [3] | Specific activity of the purified enzyme [4] [mU/mg] |
| --- | --- | --- | --- | --- | --- |
| COc1ccc(CC(C)=O)cc1OC [3,4-Dimethoxyphenylacetone] | 100 | 0.0 |  |  |  |
| B1 |  |  | ≥ 99 | about 95% | 196 |
